Experimental data reported in IntAct's records for PubMed 15546919.

B1: Arf-GAP with Rho-GAP domain, ANK repeat and PH domain-containing protein 3 (Mus musculus), Q8R5G7 (parent)
chain: MAAPQDLDIAVWLALVHLEQYADTFRRHGLATAGAAQHLGHEELRHLGISATGHRKRILRLLRAGSAEGFLDSHLDNTMEPTPSPAPDAQPPKPVPKPRTVFGLSNPATAQRPGLSPIFWDPEVSRNSECTQRSSPLLPSSSEQPSVPNTMEMMPNAIYFGLDLRGRAQAAQDVTPDSSQATVPTPAFRPTTGTVHIMDPGCLYYGVQPVGIPGASDRRDGRGVCQERAEHRQDLETREDAGYASLELPGDSILSLPTQDAETSDDLISPYASFSSTADRPVPLLSGWLDKLSPQGNYVFQRRFVQFNGRSLMYFGSDKDPFPKGVIPLTAIEMTRSSKDNKFQVITGQRVFVFRTESEAQRDLWCSTLQSCLKEQRLLGHPRPPHPPRPLRTGTLELRGHKAKVFAALIPGELALYKSEQAFSLGIGICFIELQGCSVRETKSRSFDLLTPHRCFSFTAESGGARQSWAAALQEAVTETLSDYEVAEKVWSNPANRHCADCRASRPDWAAVNLGVVICKQCAGQHRALGSGISKVQSLKLDTSVWSNEIVQLFIVLGNDRANCFWAGALPPGEGLHPDSAPGPRGEFISRKYKLGLFRKPHPRHPDHSQLLQALCAAMAGPNLLKNMAQLLCVETSEGEEPLSPSALNGSLLSLLPSDSPGVYNEVVVPATYRGFLYCGSISNKAGAPPLRRGRDAPPRLWCVLGAALEMFASESSPEPLSLLQPQDIVCLGVSPPPADPGDLDRFPFSFELILTGGRIQHFATDGADSLEAWISAVGKWFSPLSCHQLLGPGLLRMGRLWLRSPSHAGLAPGLWLSGFGLLRGDHLFLCPAPGPGPPAPEDMVHLRRLQEISVVSAADTPDKKEHLVLVETGRTLYLQGEGRLDFAAWNTAIGGAAGGGGTGLQEQQMSRGDIPIIVDACISFVTQHGLRLEGVYRKGGARARSLRLLAEFRRDARSVKLRPREHFVEDVTDTLKRFFRELDDPVTSARLLPRWREAAELSQKNQRLEKYKEVISCLPRVNRRTLATLIGHLYRVQKCASLNQMCTRNLALLFAPSVFQTDGRGEHEVRVLQELIDGYISVFDIDSDQAAQIDLEVSLITTWKDVQLSQAGDLIMEVYIEQQLPDNCVTLKVSPTLTAEELTNQVLEMRGAASGTDLWVTFEILEHGELERPLHPKEKVLEQALQWCQLPEPCSASLLLRKVSMAHAGCLFTGVRRESPRVGLLRCREEPPRLLGNRFQERFFLVRGRCLLLLKEKKSSKPEREWSLEGAKVYLGIRKKLKPPTLWGFTLILEKMHLCLSCMDEEEMWDWTTSILKAQHDDQQSVVLRRRSSSDLARQKFGTMPLLPIRGDDSGATLLSANQTLRRLHNRRTLSMFFPMKSPQGSVEEQDELEEPVYEEPVYEEVGAFPELTKDTTFSSTWEWSAKSDPSLTSQRSFDQPPLSKASMLGHEERIPDPPPGPPSKSSSQARGSLEEQLLQELNNLILRKGEPASCPESSSQPTSPQAPSPTSLPTPTPSLPTQPPCTSNPPSSQPLT

Variants of: B1
Details: with src_human SRC

Row | Variant | effect of a mutation on the interaction
1 | Y1399F;Y1404F | decreasing interaction
